The results in this text go back to US20140087995A1 (published 2014).

As a reminder, the IC50 is the concentration needed to halve the response being measured.

Numbered stars: 1 amine (or outer) side, 2 acyl side, 3 side chain; on linkers, the order of the positions; unused ones are H or OH. Bridge positions count the residues as written; N and C are the ends. Side chains are listed from the residue outwards. Ends that are not written are not given here. * marks the point of attachment. C20 diacid = O=C(O)CCCCCCCCCCCCCCCCCCC(=O)*; γGlu = O=C(O)[C@H](CCC(=O)[*:2])N[*:1]

The labels stand for the following.
T1: human amylin 3(a) receptor (human calcitonin receptor plus RAMP-3) (human, UniProt P30988 25-474; O60896 24-148, limits assumed)
T1 construct: whole, on cells; Whole cells in the luciferase assay (Assay II a); also called hAmylin-R; human amylin receptor
T1 sequence (looked up) 1: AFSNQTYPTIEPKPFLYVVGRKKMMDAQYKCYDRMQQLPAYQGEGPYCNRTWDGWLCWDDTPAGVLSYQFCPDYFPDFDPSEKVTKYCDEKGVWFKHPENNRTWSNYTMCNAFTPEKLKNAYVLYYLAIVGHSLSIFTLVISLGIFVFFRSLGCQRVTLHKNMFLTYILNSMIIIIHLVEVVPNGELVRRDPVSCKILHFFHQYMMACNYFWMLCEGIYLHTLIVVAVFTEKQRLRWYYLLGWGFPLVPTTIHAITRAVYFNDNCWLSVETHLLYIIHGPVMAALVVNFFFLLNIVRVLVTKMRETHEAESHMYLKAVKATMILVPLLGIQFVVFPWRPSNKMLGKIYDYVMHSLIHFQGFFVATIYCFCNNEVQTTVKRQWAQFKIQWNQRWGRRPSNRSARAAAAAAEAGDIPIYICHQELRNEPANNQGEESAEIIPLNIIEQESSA
T1 sequence (looked up) 2: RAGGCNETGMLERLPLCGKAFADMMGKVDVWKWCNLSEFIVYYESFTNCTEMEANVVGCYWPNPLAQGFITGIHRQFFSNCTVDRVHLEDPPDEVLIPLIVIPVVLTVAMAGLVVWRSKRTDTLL

T2: human calcitonin receptor (human, UniProt P30988 25-474)
T2 sequence (looked up): T1 sequence (looked up) 1

B1: N^ε1-[(4S)-4-carboxy-4-(19-carboxynonadecanoylamino)butanoyl]-[Glu14,Arg17,Pro21,Pro27,Arg35]-h-amylin (peptide)
peptide: K([γGlu-C20 diacid])CNTATCATQRLAEFLRHSSPNFGAIPSSTNVGSRTY-NH2
modifications: disulfide 2-7; N-terminus assumed
SMILES: CC[C@H](C)[C@H](NC(=O)[C@H](C)NC(=O)CNC(=O)[C@H](Cc1ccccc1)NC(=O)[C@H](CC(N)=O)NC(=O)[C@@H]1CCCN1C(=O)[C@H](CO)NC(=O)[C@H](CO)NC(=O)[C@H](Cc1c[nH]cn1)NC(=O)[C@H](CCCNC(=N)N)NC(=O)[C@H](CC(C)C)NC(=O)[C@H](Cc1ccccc1)NC(=O)[C@H](CCC(=O)O)NC(=O)[C@H](C)NC(=O)[C@H](CC(C)C)NC(=O)[C@H](CCCNC(=N)N)NC(=O)[C@H](CCC(N)=O)NC(=O)[C@@H](NC(=O)[C@H](C)NC(=O)[C@@H]1CSSC[C@H](NC(=O)[C@@H](N)CCCCNC(=O)CC[C@H](NC(=O)CCCCCCCCCCCCCCCCCCC(=O)O)C(=O)O)C(=O)N[C@@H](CC(N)=O)C(=O)N[C@@H]([C@@H](C)O)C(=O)N[C@@H](C)C(=O)N[C@@H]([C@@H](C)O)C(=O)N1)[C@@H](C)O)C(=O)N1CCC[C@H]1C(=O)N[C@@H](CO)C(=O)N[C@@H](CO)C(=O)N[C@H](C(=O)N[C@@H](CC(N)=O)C(=O)N[C@H](C(=O)NCC(=O)N[C@@H](CO)C(=O)N[C@@H](CCCNC(=N)N)C(=O)N[C@H](C(=O)N[C@@H](Cc1ccc(O)cc1)C(N)=O)[C@@H](C)O)C(C)C)[C@@H](C)O
notes: also called compound 51
B2: N^ε1-[(4S)-4-carboxy-4-(19-carboxynonadecanoylamino)butanoyl]-[Glu14,Arg17,Pro21,Pro27,Pro34,Pro37]-h-amylin (peptide)
peptide: K([γGlu-C20 diacid])CNTATCATQRLAEFLRHSSPNFGAIPSSTNVGPNTP-NH2
modifications: disulfide 2-7; N-terminus assumed
SMILES: CC[C@H](C)[C@H](NC(=O)[C@H](C)NC(=O)CNC(=O)[C@H](Cc1ccccc1)NC(=O)[C@H](CC(N)=O)NC(=O)[C@@H]1CCCN1C(=O)[C@H](CO)NC(=O)[C@H](CO)NC(=O)[C@H](Cc1c[nH]cn1)NC(=O)[C@H](CCCNC(=N)N)NC(=O)[C@H](CC(C)C)NC(=O)[C@H](Cc1ccccc1)NC(=O)[C@H](CCC(=O)O)NC(=O)[C@H](C)NC(=O)[C@H](CC(C)C)NC(=O)[C@H](CCCNC(=N)N)NC(=O)[C@H](CCC(N)=O)NC(=O)[C@@H](NC(=O)[C@H](C)NC(=O)[C@@H]1CSSC[C@H](NC(=O)[C@@H](N)CCCCNC(=O)CC[C@H](NC(=O)CCCCCCCCCCCCCCCCCCC(=O)O)C(=O)O)C(=O)N[C@@H](CC(N)=O)C(=O)N[C@@H]([C@@H](C)O)C(=O)N[C@@H](C)C(=O)N[C@@H]([C@@H](C)O)C(=O)N1)[C@@H](C)O)C(=O)N1CCC[C@H]1C(=O)N[C@@H](CO)C(=O)N[C@@H](CO)C(=O)N[C@H](C(=O)N[C@@H](CC(N)=O)C(=O)N[C@H](C(=O)NCC(=O)N1CCC[C@H]1C(=O)N[C@@H](CC(N)=O)C(=O)N[C@H](C(=O)N1CCC[C@H]1C(N)=O)[C@@H](C)O)C(C)C)[C@@H](C)O
B3: N^ε1-[(4S)-4-carboxy-4-(19-carboxynonadecanoylamino)butanoyl]-[Glu14,Arg17,Pro21,Pro27,His34,Glu35]-h-amylin (peptide)
peptide: K([γGlu-C20 diacid])CNTATCATQRLAEFLRHSSPNFGAIPSSTNVGHETY-NH2
modifications: disulfide 2-7; N-terminus assumed
SMILES: CC[C@H](C)[C@H](NC(=O)[C@H](C)NC(=O)CNC(=O)[C@H](Cc1ccccc1)NC(=O)[C@H](CC(N)=O)NC(=O)[C@@H]1CCCN1C(=O)[C@H](CO)NC(=O)[C@H](CO)NC(=O)[C@H](Cc1c[nH]cn1)NC(=O)[C@H](CCCNC(=N)N)NC(=O)[C@H](CC(C)C)NC(=O)[C@H](Cc1ccccc1)NC(=O)[C@H](CCC(=O)O)NC(=O)[C@H](C)NC(=O)[C@H](CC(C)C)NC(=O)[C@H](CCCNC(=N)N)NC(=O)[C@H](CCC(N)=O)NC(=O)[C@@H](NC(=O)[C@H](C)NC(=O)[C@@H]1CSSC[C@H](NC(=O)[C@@H](N)CCCCNC(=O)CC[C@H](NC(=O)CCCCCCCCCCCCCCCCCCC(=O)O)C(=O)O)C(=O)N[C@@H](CC(N)=O)C(=O)N[C@@H]([C@@H](C)O)C(=O)N[C@@H](C)C(=O)N[C@@H]([C@@H](C)O)C(=O)N1)[C@@H](C)O)C(=O)N1CCC[C@H]1C(=O)N[C@@H](CO)C(=O)N[C@@H](CO)C(=O)N[C@H](C(=O)N[C@@H](CC(N)=O)C(=O)N[C@H](C(=O)NCC(=O)N[C@@H](Cc1c[nH]cn1)C(=O)N[C@@H](CCC(=O)O)C(=O)N[C@H](C(=O)N[C@@H](Cc1ccc(O)cc1)C(N)=O)[C@@H](C)O)C(C)C)[C@@H](C)O
notes: also called compound 107
B4: N^ε1-[(4S)-4-carboxy-4-(19-carboxynonadecanoylamino)butanoyl]-[Glu14,Arg17,Pro21,Pro27,Pro34,Glu35]-h-amylin (peptide)
peptide: K([γGlu-C20 diacid])CNTATCATQRLAEFLRHSSPNFGAIPSSTNVGPETY-NH2
modifications: disulfide 2-7; N-terminus assumed
SMILES: CC[C@H](C)[C@H](NC(=O)[C@H](C)NC(=O)CNC(=O)[C@H](Cc1ccccc1)NC(=O)[C@H](CC(N)=O)NC(=O)[C@@H]1CCCN1C(=O)[C@H](CO)NC(=O)[C@H](CO)NC(=O)[C@H](Cc1c[nH]cn1)NC(=O)[C@H](CCCNC(=N)N)NC(=O)[C@H](CC(C)C)NC(=O)[C@H](Cc1ccccc1)NC(=O)[C@H](CCC(=O)O)NC(=O)[C@H](C)NC(=O)[C@H](CC(C)C)NC(=O)[C@H](CCCNC(=N)N)NC(=O)[C@H](CCC(N)=O)NC(=O)[C@@H](NC(=O)[C@H](C)NC(=O)[C@@H]1CSSC[C@H](NC(=O)[C@@H](N)CCCCNC(=O)CC[C@H](NC(=O)CCCCCCCCCCCCCCCCCCC(=O)O)C(=O)O)C(=O)N[C@@H](CC(N)=O)C(=O)N[C@@H]([C@@H](C)O)C(=O)N[C@@H](C)C(=O)N[C@@H]([C@@H](C)O)C(=O)N1)[C@@H](C)O)C(=O)N1CCC[C@H]1C(=O)N[C@@H](CO)C(=O)N[C@@H](CO)C(=O)N[C@H](C(=O)N[C@@H](CC(N)=O)C(=O)N[C@H](C(=O)NCC(=O)N1CCC[C@H]1C(=O)N[C@@H](CCC(=O)O)C(=O)N[C@H](C(=O)N[C@@H](Cc1ccc(O)cc1)C(N)=O)[C@@H](C)O)C(C)C)[C@@H](C)O
B5: N^ε1-[(4S)-4-carboxy-4-(19-carboxynonadecanoylamino)butanoyl]-[Glu14,Arg17,Pro21,Pro27,Pro34,Arg35]-h-amylin (peptide)
peptide: K([γGlu-C20 diacid])CNTATCATQRLAEFLRHSSPNFGAIPSSTNVGPRTY-NH2
modifications: disulfide 2-7; N-terminus assumed
SMILES: CC[C@H](C)[C@H](NC(=O)[C@H](C)NC(=O)CNC(=O)[C@H](Cc1ccccc1)NC(=O)[C@H](CC(N)=O)NC(=O)[C@@H]1CCCN1C(=O)[C@H](CO)NC(=O)[C@H](CO)NC(=O)[C@H](Cc1c[nH]cn1)NC(=O)[C@H](CCCNC(=N)N)NC(=O)[C@H](CC(C)C)NC(=O)[C@H](Cc1ccccc1)NC(=O)[C@H](CCC(=O)O)NC(=O)[C@H](C)NC(=O)[C@H](CC(C)C)NC(=O)[C@H](CCCNC(=N)N)NC(=O)[C@H](CCC(N)=O)NC(=O)[C@@H](NC(=O)[C@H](C)NC(=O)[C@@H]1CSSC[C@H](NC(=O)[C@@H](N)CCCCNC(=O)CC[C@H](NC(=O)CCCCCCCCCCCCCCCCCCC(=O)O)C(=O)O)C(=O)N[C@@H](CC(N)=O)C(=O)N[C@@H]([C@@H](C)O)C(=O)N[C@@H](C)C(=O)N[C@@H]([C@@H](C)O)C(=O)N1)[C@@H](C)O)C(=O)N1CCC[C@H]1C(=O)N[C@@H](CO)C(=O)N[C@@H](CO)C(=O)N[C@H](C(=O)N[C@@H](CC(N)=O)C(=O)N[C@H](C(=O)NCC(=O)N1CCC[C@H]1C(=O)N[C@@H](CCCNC(=N)N)C(=O)N[C@H](C(=O)N[C@@H](Cc1ccc(O)cc1)C(N)=O)[C@@H](C)O)C(C)C)[C@@H](C)O

The target of one assay is T1, human amylin 3(a) receptor (human …). Nature of the assay: SPA competition binding, displacement of 125I-rat amylin from membranes of Amylin 3(a)/CRE-luc BHK cells (Assay V). The essentials: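 Cell membranes were prepared by homogenisation in Na-HEPES/EDTA buffer, pH 7.4, and stored at −80° C. They were then coupled to SPA beads at 35 ng/μL final and exposed to compounds in assay buffer containing CaCl2, MgCl₂, OA and Tween20. After 120 min at 25° C, plates were counted and IC₅₀ derived.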
A general note: Loss of bound radioactivity is the signal in a displacement assay; it reports binding, not function.
Regarding B1, the IC50 was found to be 0.828 nM.

As for K([γGlu-C20 diacid])CNTATCATQRLAEFLRHSSPNFGAIPSSTNVGPHTY-NH2 (disulfide 2-7), the IC50 amounted to 0.179 nM.

With B2, the IC50 was 0.214 nM.

On to B3, for which the IC50 was determined as 0.387 nM.

Take B4: the IC50 was found to be 0.14 nM.

On to B5, for which the IC50 is 0.163 nM.

The next assay addresses T2, human calcitonin receptor. As to the kind of experiment: cell-based or functional assay.
Take B1: the “hCTR funct. EC50” value came to 5.22 nM.

For K([γGlu-C20 diacid])CNTATCATQRLAEFLRHSSPNFGAIPSSTNVGPHTY-NH2 (disulfide 2-7), the “hCTR funct. EC50” value stood at 1.45 nM.

Regarding B2, the “hCTR funct. EC50” value was found to be 0.09 nM.

B3: the “hCTR funct. EC50” value was determined as 2.54 nM.

As to B4, the “hCTR funct. EC50” value came to 0.841 nM.

B5: the “hCTR funct. EC50” value was 6.38 nM.

The target of a further assay is T1, human amylin 3(a) receptor (human …). As to the kind of experiment: cell-based or functional assay.
B1: the “Ratio hCT/hAmylin funct.” value stood at 14 and the “hAmylin-R funct. EC50” value came out at 0.372 nM.

Regarding K([γGlu-C20 diacid])CNTATCATQRLAEFLRHSSPNFGAIPSSTNVGPHTY-NH2 (disulfide 2-7), the “hAmylin-R funct. EC50” value came out at 0.101 nM.

B2: the “Ratio hCT/hAmylin funct.” value was 0.9 and the “hAmylin-R funct. EC50” value is 0.105 nM.

Regarding B3, the “Ratio hCT/hAmylin funct.” value was determined as 6.3 and the “hAmylin-R funct. EC50” value came to 0.405 nM.

Regarding B4, the “Ratio hCT/hAmylin funct.” value is 5.2 and the “hAmylin-R funct. EC50” value amounted to 0.161 nM.

Turning to B5, the “hAmylin-R funct. EC50” value is 0.376 nM.
